Assay results reported in publication PMC4912631, “Structure of the exportin Xpo4 in complex with RanGTP and the hypusine-containing translation factor eIF5A” (Nature Communications, 2016).

B3: Xpo4 wild type (natural protein)
chain: not shown

Experiments:
Conditions in all cases: both partners purified
Xpo4 wild type [1] = target: B3; test: pull-down; export complexes formed with Xpo4, eIF5A (full-length or truncated) and ZZ-bdNEDD8-tagged RanGTP; immobilised via tagged Ran; eluted by bdNEDP1 protease; SDS-PAGE, Coomassie
Xpo4 ΔLoopN&C = target: T1, Xpo4 ΔLoopN&C ( (mammalian), UniProt Q9ESJ0 1-1151, Δ241–260 | Δ931–948); test: SEC; complexes of Xpo4 variants, RanGTP and a 1.3-molar excess of hypusine-containing eIF5A, retrieved on anti-ZZ beads via tagged RanGTP, eluted by bdSENP1, then Superdex 200 16/60 in 15 mM Tris/HCl pH 7.7, 18 mM NaCl, 2 mM Mg(OAc)2, 2 mM DTT; peak fractions on SDS-PAGE
T1 construct: Xpo4 (exportin 4), mammalian, with loops 241-260 and 931-948 deleted; 1,113 residues printed; Crystallised form; 1,052 of 1,113 residues are modelled in PDB 5DLQ; also called ΔLoopN&C Xpo4 variant; Xpo4 loop deletion mutant; source: E. coli Top10 F', purified (Ni(II) chelate, bdSENP1 elution, Superdex 200, Mono Q); selenomethionine form from BL21; not shown: His14, N-terminal, cleaved; bdSUMO, …

Xpo4 wild type [2] = target: B3; test: as above
ZZ-bdNEDD8-tagged RanGTP = ZZ-bdNEDD8-tagged RanGTP ( (mammalian), UniProt P62826 5-180, Q69L); test: pull-down; 1 μM Xpo4 wild type or mutants, 0.75 μM ZZ-bdNEDD8-tagged RanGTP, 1.25 μM hypusinated eIF5A, 100 mM NaCl buffer; retrieved via tagged Ran; eluted by bdNEDP1 protease; SDS-PAGE, Coomassie
[3] = target: RanQ69L (aa 5–180), GTP-bound, untagged ( (mammalian), UniProt P62826 5-180, Q69L); test: SEC; complexes of Xpo4 variants, RanGTP and a 1.3-molar excess of hypusine-containing eIF5A, retrieved on anti-ZZ beads via tagged RanGTP, eluted by bdSENP1, then Superdex 200 16/60 in 15 mM Tris/HCl pH 7.7, 18 mM NaCl, 2 mM Mg(OAc)2, 2 mM DTT; peak fractions on SDS-PAGE

Sequence of Xpo4 wild type (Q9ESJ0 whole entry, the tested form may be a part): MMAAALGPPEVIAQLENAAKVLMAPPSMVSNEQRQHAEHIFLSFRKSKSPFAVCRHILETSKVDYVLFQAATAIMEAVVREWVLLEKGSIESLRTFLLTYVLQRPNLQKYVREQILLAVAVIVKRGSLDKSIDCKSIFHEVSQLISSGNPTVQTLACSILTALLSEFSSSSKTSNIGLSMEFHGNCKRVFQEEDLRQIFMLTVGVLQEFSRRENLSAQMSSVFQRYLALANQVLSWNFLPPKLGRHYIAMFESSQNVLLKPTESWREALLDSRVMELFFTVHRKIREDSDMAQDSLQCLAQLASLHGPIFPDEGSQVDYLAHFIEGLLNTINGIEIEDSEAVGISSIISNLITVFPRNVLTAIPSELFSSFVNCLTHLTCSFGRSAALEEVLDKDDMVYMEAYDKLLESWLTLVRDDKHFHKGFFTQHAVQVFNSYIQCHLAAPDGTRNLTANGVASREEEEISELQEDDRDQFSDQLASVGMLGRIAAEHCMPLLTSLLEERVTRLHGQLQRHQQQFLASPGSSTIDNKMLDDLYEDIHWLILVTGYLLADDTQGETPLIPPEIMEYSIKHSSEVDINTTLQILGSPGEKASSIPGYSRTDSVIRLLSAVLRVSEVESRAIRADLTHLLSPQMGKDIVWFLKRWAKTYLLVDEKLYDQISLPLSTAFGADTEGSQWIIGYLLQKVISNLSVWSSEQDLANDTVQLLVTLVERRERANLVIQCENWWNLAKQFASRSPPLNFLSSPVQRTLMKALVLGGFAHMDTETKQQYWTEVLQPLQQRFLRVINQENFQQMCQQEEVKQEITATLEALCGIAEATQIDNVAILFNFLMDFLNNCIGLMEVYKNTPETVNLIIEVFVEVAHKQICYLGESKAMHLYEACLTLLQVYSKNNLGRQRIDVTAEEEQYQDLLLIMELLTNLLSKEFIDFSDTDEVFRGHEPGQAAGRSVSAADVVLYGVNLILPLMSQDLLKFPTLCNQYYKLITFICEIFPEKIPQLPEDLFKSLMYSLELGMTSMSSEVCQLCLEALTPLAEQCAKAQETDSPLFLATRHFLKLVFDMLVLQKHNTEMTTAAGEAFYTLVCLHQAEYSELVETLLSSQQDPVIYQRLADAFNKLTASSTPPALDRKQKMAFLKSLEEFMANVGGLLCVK
T1 sequence (Q9ESJ0 other isoform, or with tags, fused parts or gaps Δ241–260 | Δ931–948 | Δ241–260 | Δ931–948 | mutant): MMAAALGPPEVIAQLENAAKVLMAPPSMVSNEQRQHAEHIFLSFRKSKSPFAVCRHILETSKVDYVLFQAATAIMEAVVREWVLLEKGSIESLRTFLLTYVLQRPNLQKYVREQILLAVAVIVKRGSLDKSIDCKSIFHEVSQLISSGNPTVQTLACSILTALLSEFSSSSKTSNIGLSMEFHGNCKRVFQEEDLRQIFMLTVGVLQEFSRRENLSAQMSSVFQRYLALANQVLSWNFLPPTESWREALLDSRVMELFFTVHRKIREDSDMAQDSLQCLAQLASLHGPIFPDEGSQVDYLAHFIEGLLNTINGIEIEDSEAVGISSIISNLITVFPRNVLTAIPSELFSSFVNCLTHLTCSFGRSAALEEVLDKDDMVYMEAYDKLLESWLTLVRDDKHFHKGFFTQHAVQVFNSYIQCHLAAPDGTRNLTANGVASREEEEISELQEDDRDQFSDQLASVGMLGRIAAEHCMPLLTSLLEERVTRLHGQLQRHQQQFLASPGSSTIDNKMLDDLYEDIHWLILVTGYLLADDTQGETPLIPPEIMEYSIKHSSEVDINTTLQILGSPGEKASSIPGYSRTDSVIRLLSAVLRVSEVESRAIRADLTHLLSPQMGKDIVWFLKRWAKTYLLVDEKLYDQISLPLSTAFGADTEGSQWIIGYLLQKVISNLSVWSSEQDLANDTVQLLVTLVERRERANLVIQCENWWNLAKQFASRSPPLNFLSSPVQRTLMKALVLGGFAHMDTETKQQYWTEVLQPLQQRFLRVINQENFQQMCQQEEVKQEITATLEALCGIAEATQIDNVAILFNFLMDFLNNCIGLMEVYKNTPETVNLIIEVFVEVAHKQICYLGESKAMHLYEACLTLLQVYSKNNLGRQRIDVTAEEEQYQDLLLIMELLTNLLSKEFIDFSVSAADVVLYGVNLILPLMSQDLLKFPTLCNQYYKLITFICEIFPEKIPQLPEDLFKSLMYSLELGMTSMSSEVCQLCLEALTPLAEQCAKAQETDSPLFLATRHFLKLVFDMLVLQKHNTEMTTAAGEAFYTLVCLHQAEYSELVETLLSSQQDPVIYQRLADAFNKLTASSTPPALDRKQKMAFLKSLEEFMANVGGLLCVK

B1: eIF5A, full-length, hypusinated (natural protein)
chain: not shown
modifications: hypusine (N-ɛ-(4-amino-2-hydroxybutyl)-lysine) at 50
notes: eIF5A, mammalian; lysine 50 in human numbering carries the hypusine; In the nuclear export assay this protein carried an Alexa568 label; also called eIF5A(Hpu); hypusinated eIF5A; source: E. coli NEB Express, purified; hypusinated in vitro by recombinant deoxyhypusine synthase and deoxyhypusine hydroxylase; eluted from anti-ZZ matrix by bdSENP1; cation exchange; not shown: His14, N-terminal, …
B1: binds (Xpo4 wild type [1]).

B2: eIF5A truncated (14 N-terminal residues deleted), hypusinated (domain or fragment)
chain: not shown
modifications: hypusine (N-ɛ-(4-amino-2-hydroxybutyl)-lysine) at 50
B2: binds (Xpo4 ΔLoopN&C); binds (Xpo4 wild type [2]).

B3: binds (ZZ-bdNEDD8-tagged RanGTP); binds [3].

B4: Xpo4 D470N (natural protein)
chain: not shown
B4: binds (ZZ-bdNEDD8-tagged RanGTP).

B5: Xpo4 E537Q (natural protein)
chain: not shown
B5: binds (ZZ-bdNEDD8-tagged RanGTP).

B6: Xpo4 S631A (natural protein)
chain: not shown
B6: binds (ZZ-bdNEDD8-tagged RanGTP).
